In assay [1] the target is T1, 3A9 TCR / complex of HEL antigen and I-A^k on LK35.2 cells (Mus musculus, UniProt P01910+P06343).
T1 construct: LK35.2 cells expressing I-A^k (the MHC class II molecule); endogenous in cells; host or cells: LK35.2 cells (I-A^k); the 3A9 scTCR-Fc is culture supernatant of transfected 293T cells
The assay can be described thus: Immunization of mice with HEL protein or HEL peptides; serum inhibition of soluble single-chain 3A9 TCR binding to HEL protein-pulsed LK35.2 cells. The conditions noted are these: immunogen with CFA subcutaneously; serum two weeks after administration. It is filed as in vivo, mice (B10.A strain). Here is the method:
30 nmol of the HEL peptide 41-70 or the HEL peptide 48-61 was mixed with a complete Freund's adjuvant. Each of the thus-obtained mixture was administered subcutaneously to mice (B10.A strain). Two weeks after the administration, whole blood was collected from each mouse, and serum was collected from the whole blood.
LK35.2 cells were pulsed with the HEL protein in the same manner as in the item (2) in Example 1B, except that the HEL protein was added instead of the HEL protein, the HEL peptide 41-70, and the HEL peptide 48-61. The cultured LK35.2 cells were collected from the wells. Thereafter, the collected LK35.2 cells were used in inhibition of TCR recognition by an antibody to be described below.
Flow cytometry analysis was performed in the same manner as in the item (3) in Example 1B, except that serums of the HEL peptide 41-70-immunized mice or serums of the HEL peptide 48-61-immunized mice were used in addition to the serums of the HEL protein-immunized mice and that the LK35.2 cells obtained in the item (1) in Example 2B were used instead of the LK35.2 cells obtained in the item (2) in Example 1B. As Control 1, the flow cytometry analysis was performed in the same manner, except that serums collected from non-immunized mice were used instead of the serums of the HEL protein-immunized mice, the serums of the HEL peptide 41-70-immunized mice, and the serums of the HEL peptide 48-61-immunized mice. As Control 2, the flow cytometry analysis was performed in the same manner, except that the HEL protein was not added.
30 nmol of the HEL peptide 48-77 (Y53A L56A) was mixed with a complete Freund's adjuvant, and the resultant mixture was administered subcutaneously to mice (B10.A strain). Two weeks after the administration, whole blood was collected from each mouse, and serum was collected from the whole blood.
Flow cytometry analysis was performed in the same manner as in the item (3) in Example 1B, except that serums of the HEL peptide 48-77 (Y53A L56A)-immunized mice were used in addition to the serums of the HEL protein-immunized mice and that the LK35.2 cells obtained in the item (2) in Example 4 were used instead of the LK35.2 cells obtained in the item (2) in Example 1B. As controls, the flow cytometry analysis was performed in the same manner, except that serums collected from non-immunized mice were used instead of the serums of the HEL protein-immunized mice and the serums of the HEL peptide 48-77 (Y53A L56A)-immunized mice.

For assay [2], the target named is T1, 3A9 TCR / complex of HEL antigen and I-A^k on LK35.2 cells. The assay can be described thus: Inhibition of TCR recognition by antibody: binding of soluble single-chain 3A9 TCR to antigen-pulsed LK35.2 cells after reaction with serum. The settings on record: cells reacted with serums of HEL-immunized mice, diluted 10-fold. An excerpt:
From 3A9 T cell hybridomas (obtained from Laboratory of Vaccine Materials, National Institutes of Biomedical Innovation) expressing a TCR that recognizes a complex of a peptide consisting of the amino acid sequence of SEQ ID NO: 1 (the T-cell epitope) and I-A^k (the MHC class II molecule), the TCR was cloned. Specifically, from cDNA derived from the 3A9 T cell hybridomas, a polynucleotide encoding the following α-chain and β-chain of 3A9 TCR linked by a GGGGS linker was cloned into a pME18S vector. Thus, a 3A9 TCR expression vector was produced. The vector was designed so that the Fc domain of human IgG is added to the C terminus of an expressed protein. Thus, by introducing the expression vector to a host, a soluble single-chain TCR composed of 3A9 TCR and Fc bound thereto is expressed (3A9 scTCR-Fc).
Next, the 293 T cells were cultured for 96 hours under the same 30 culture conditions as in the item (1) in Example 1A, except that the 3A9 TCR expression vector was introduced instead of the I-A^k c expression vector and the I-A^k f expression vector. After the culture, the supernatant was collected, and the collected supernatant was used as the soluble single-chain TCR.
LK35.2 cells expressing I-A^k (the MHC class II molecule) were seeded in a 24-well plate at a density of 1×10^5 cells/1 ml/well. Next, the HEL protein was added to the wells at a concentration of 200 μg/ml, or the HEL peptide 41-70 or the HEL peptide 48-61 was added to the wells at a concentration of 20 μmol/l. The LK35.2 cells were pulsed with the HEL protein or the HEL peptide by culturing the HEL protein-added group for another 48 hours and the HEL peptide added groups for another 24 hours under the above-described culture conditions. The cultured LK35.2 cells were collected from the wells. Thereafter, the collected LK35.2 cells were used in inhibition of TCR recognition by an antibody to be described below.
Serum collected from each of the HEL protein-immunized mice was diluted 10-fold with HBSS to obtain a diluted serum. Next, 10 μl of the diluted serum was added to the LK35.2 cells obtained in the above item (2) to cause a reaction. Further, a dimer of 20 μl of the supernatant obtained in the above item (1) and 10 μl of an APC-labeled anti-human IgG Fc antibody (code number: 109-136-098, Jackson ImmunoResearch) diluted 100-fold was formed beforehand, and the LK35.2 cells after the reaction were reacted with the dimer. Then, the LK35.2 cells were analyzed by flow cytometry. As Control 1, the flow cytometry analysis was performed in the same manner, except that serums collected from non-immunized mice were used instead of the serums of the HEL protein-immunized mice. […]

T1 sequence (P01910 24-256): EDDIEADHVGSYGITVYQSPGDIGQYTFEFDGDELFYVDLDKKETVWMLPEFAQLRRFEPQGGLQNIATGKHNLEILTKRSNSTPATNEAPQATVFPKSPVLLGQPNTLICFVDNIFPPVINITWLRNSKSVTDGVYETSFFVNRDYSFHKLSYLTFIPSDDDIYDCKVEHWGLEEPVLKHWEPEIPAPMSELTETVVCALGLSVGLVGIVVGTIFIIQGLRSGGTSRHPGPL
T1 sequence (P06343 28-263): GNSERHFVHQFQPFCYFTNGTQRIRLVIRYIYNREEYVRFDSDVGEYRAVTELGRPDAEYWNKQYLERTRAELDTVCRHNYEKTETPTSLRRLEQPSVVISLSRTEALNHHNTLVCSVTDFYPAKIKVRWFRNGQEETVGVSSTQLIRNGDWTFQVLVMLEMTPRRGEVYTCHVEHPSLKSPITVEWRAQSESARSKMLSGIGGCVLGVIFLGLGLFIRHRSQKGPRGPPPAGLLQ

For the sequence “DGSTDYGILQINSR (Gallus gallus domesticus) [HEL peptide 48-61, reference compound]”, the “binding of soluble single-chain TCR to LK35.2 cells pulsed with HEL protein after reaction with serums of mice immunized with the substance” value in assay [1] is reported as “observed”. Besides, the “binding of soluble single-chain TCR to LK35.2 cells pulsed with the antigen” value in assay [2] was “observed”.
“QATNRNTDGSTDYGILQINSRWWCNDGRTP (Gallus gallus domesticus) [HEL peptide 41-70]”: the “binding of soluble single-chain TCR to LK35.2 cells pulsed with HEL protein after reaction with serums of mice immunized with the substance” value in assay [1] is “not observed”. Moreover, the “binding of soluble single-chain TCR to LK35.2 cells pulsed with the antigen” value in assay [2] is reported as “not observed”.

For the origin of these results see patent US20190336589A1, “IMMUNIZING PEPTIDE, METHOD FOR PRODUCING IMMUNIZING PEPTIDE, PHARMACEUTICAL COMPOSITION FOR IMMUNE DISEASE CONTAINING SAME, AND METHOD FOR TREATING IMMUNE DISEASE” (OSAKA UNIVERSITY, priority 2015, published 2019).
